Test results published in patent publication US20220119489A1, “COMPOSITIONS AND METHODS FOR […] […] DYSTROPHY AND RELATED DISORDERS” (CHILDREN'S MEDICAL CENTER CORPORATION, published 2022).

The binders below were run against CD82 (mouse) (mouse, UniProt P40237) (assay: IP with anti CD82 antibodies, mouse muscle tissue, mass spectrometry).

Row | Binder | Total | Unique
1 | CISY_MOUSE (enzyme) ASSTNLKDVLSNLIPKEQARIKTFKQQHGKTVVGQITVDMMYGGMRGMKGLVYETSVLDPDEGIRFRGYSIPECQKMLPKAKGGEEPLPEGLFWLLVTGQMPTEEQVSWLSREWAKRAALPSHVVTMLDNFPTNLHPMSQLSAAITALNSESNFARAYAEGMNRAKYWELIYEDCMDLIAKLPCVAAKIYRNLYREGSSIGAIDSRLDWSHNFTNMLGYTDPQFTELMRLYLTIHSDHEGGNVSAHTSHLVGSALSDPYLSFAAAMNGLAGPLHGLANQEVLVWLTQLQKEVGKDVSDEKLRDYIWNTLNSGRVVPGYGHAVLRKTDPRYSCQREFALKHLPKDPMFKLVAQLYKIVPNILLEQGKAKNPWPNVDAHSGVLLQYYGMTEMNYYTVLFGVSRALGVLAQLIWSRALGFPLERPKSMSTDGLMKFVDSK | 2 | 2
2 | Annexin 2 (mouse) (other) STVHEILCKLSLEGDHSTPPSAYGSVKPYTNFDAERDALNIETAVKTKGVDEVTIVNILTNRSNVQRQDIAFAYQRRTKKELPSALKSALSGHLETVILGLLKTPAQYDASELKASMKGLGTDEDSLIEIICSRTNQELQEINRVYKEMYKTDLEKDIISDTSGDFRKLMVALAKGRRAEDGSVIDYELIDQDARELYDAGVKRKGTDVPKWISIMTERSVCHLQKVFERYKSYSPYDMLESIKKEVKGDLENAFLNLVQCIQNKPLYFADRLYDSMKGKGTRDKVLIRIMVSRSEVDMLKIRSEFKRKYGKSLYYYIQQDTKGDYQKALLYLCGGDD | 1 | 1
3 | ENOA_MOUSE (enzyme) SILRIHAREIFDSRGNPTVEVDLYTAKGLFRAAVPSGASTGIYEALELRDNDKTRFMGKGVSQAVEHINKTIAPALVSKKVNVVEQEKIDKLMIEMDGTENKSKFGANAILGVSLAVCKAGAVEKGVPLYRHIADLAGNPEVILPVPAFNVINGGSHAGNKLAMQEFMILPVGASSFREAMRIGAEVYHNLKNVIKEKYGKDATNVGDEGGFAPNILENKEALELLKTAIAKAGYTDQVVIGMDVAASEFYRSGKYDLDFKSPDDPSRYITPDQLADLYKSFVQNYPVVSIEDPFDQDDWGAWQKFTASAGIQVVGDDLTVTNPKRIAKAASEKSCNCLLLKVNQIGSVTESLQACKLAQSNGWGVMVSHRSGETEDTFIADLVVGLCTGQIKTGAPCRSERLAKYNQILRIEEELGSKAKFAGRSFRNPLAK | 2 | 2
4 | Annexin 1 (mouse) (other) AMVSEFLKQARFLENQEQEYVQAVKSYKGGPGSAVSPYPSFNVSSDVAALHKAIMVKGVDEATIIDILTKRTNAQRQQIKAAYLQENGKPLDEVLRKALTGHLEEVVLAMLKTPAQFDADELRGAMKGLGTDEDTLIEILTTRSNEQIREINRVYREELKRDLAKDITSDTSGDFRKALLALAKGDRCQDLSVNQDLADTDARALYEAGERRKGTDVNVFTTILTSRSFPHLRRVFQNYGKYSQHDMNKALDLELKGDIEKCLTTIVKCATSTPAFFAEKLYEAMKGAGTRHKALIRIMVSRSEIDMNEIKVFYQKKYGISLCQAILDETKGDYEKILVALCGGN | 2 | 2
5 | Creatine Kinase, Muscle type (enzyme) not shown | 14 | 11
6 | EF1A1_MOUSE (other) GKEKTHINIVVIGHVDSGKSTTTGHLIYKCGGIDKRTIEKFEKEAAEMGKGSFKYAWVLDKLKAERERGITIDISLWKFETSKYYVTIIDAPGHRDFIKNMITGTSQADCAVLIVAAGVGEFEAGISKNGQTREHALLAYTLGVKQLIVGVNKMDSTEPPYSQKRYEEIVKEVSTYIKKIGYNPDTVAFVPISGWNGDNMLEPSANMPWFKGWKVTRKDGSASGTTLLEALDCILPPTRPTDKPLRLPLQDVYKIGGIGTVPVGRVETGVLKPGMVVTFAPVNVTTEVKSVEMHHEALSEALPGDNVGFNVKNVSVKDVRRGNVAGDSKNDPPMEAAGFTAQVIILNHPGQISAGYAPVLDCHTAHIACKFAELKEKIDRRSGKKLEDGPKFLKSGDAAIVDMVPGKPMCVESFSDYPPLGRFAVRDMRQTVAVGVIKAVDKKAAGAGKVTKSAQKAQKAK | 2 | 2
7 | QCR2_MOUSE (other) SLKVAPKVKTSAAPGGVPLQPQDLEFTKLPNGLVIASLENYAPLSRIGLFVKAGSRYEDSNNLGTSHLLRLASSLTTKGASSFKITRGIEAVGGKLSVTATRENMAYTVEGIRSDIEILMEFLLNVTTAPEFRRWEVAALRSQLKIDKAVAFQNSQTRIIENLHDVAYKNALANPLYCPDYRMGKITSEELHYFVQNHFTSARMALVGLGVSHSVLKQVAEQFLNMRGGLGLAGAKAKYRGGEIREQNGDNLVHAAIVAESAAIGNAEANAFSVLQHLLGAGPHIKRGNNTTSLLSQSVAKGSHQPFDVSAFNASYSDSGLFGIYTISQAAAAGEVINAAYNQVKAVAQGNLSSADVQAAKNKLKAGYLMSVETSEGFLSEIGSQALAAGSYMPPSTVLQQIDSVADADVVKAAKKFVSGKKSMAASGNLGHTPFLDEL | 1 | 1
8 | FBX50_MOUSE (other) MEKTQDRDTLSGRMEAEGSLNSEELPPHPQSPPPPPSPRSPTSPVTPELPQPNAPTEVEARQLLVEEWGPLSGKLELPPRISWQLLFLERPLYRNLLSSPNPEGINIYQPAPPTGPTRKPLKELGNFRGWYITTQNLQGPLSWTVKEQCVNLLAKKLWEELLDDEQPDITIMDWFEDSRLDQCVYELHVWLLAADRRTVIAQHHVAPRTNGRGPPGRWIQVSHVFRQYGPGVRFVYFQHKAKNRMEPGGLRRTRVTDSSVSVQLRE | 2 | 2

The remaining lines, values ahead:

Row | Total | Unique | Binder
9 | 25 | 7 | IGHG_RABIT (other) GQPKAPSVFPLAPCCGDTPSSTVTLGCLVKGYLPEPVTVTWNSGTLTNGVRTFPSVRQSSGLYSLSSVVSVTSSSQPVTCNVAHPATNTKVDKTVAPSTCSKPTCPPPELLGGPSVFIFPPKPKDTLMISRTPEVTCVVVDVSQDDPEVQFTWYINNEQVRTARPPLREQQFNSTIRVVSTLPITHQDWLRGKEFKCKVHNKALPAPIEKTISKARGQPLEPKVYTMGPPREELSSRSVSLTCMINGFYPSDISVEWEKNGKAEDNYKTTPAVLDSDGSYFLYNKLSVPTSEWQRGDVFTCSVMHEALHNHYTQKSISRSPGK
10 | 3 | 2 | PRDX1_MOUSE (enzyme) SSGNAKIGYPAPNFKATAVMPDGQFKDISLSEYKGKYVVFFFYPLDFTFVCPTEIIAFSDRADEFKKLNCQVIGASVDSHFCHLAWINTPKKQGGLGPMNIPLISDPKRTIAQDYGVLKADEGISFRGLFIIDDKGILRQITINDLPVGRSVDEIIRLVQAFQFTDKHGEVCPAGWKPGSDTIKPDVNKSKEYFSKQK
11 | 1 | 1 | LYZ1_MOUSE (enzyme) KVYNRCELARILKRNGMDGYRGVKLADWVCLAQHESNYNTRATNYNRGDRSTDYGIFQINSRYWCNDGKTPRSKNACGINCSALLQDDITAAIQCAKRVVRDPQGIRAWVAWRTQCQNRDLSQYIRNCGV
12 | 7 | 7 | ENOB_MOUSE (enzyme) AMQKIFAREILDSRGNPTVEVDLHTAKGRFRAAVPSGASTGIYEALELRDGDKARYLGKGVLKAVEHINKTLGPALLEKKLSVVDQEKVDKFMIELDGTENKSKFGANAILGVSLAVCKAGAAEKGVPLYRHIADLAGNPDLVLPVPAFNVINGGSHAGNKLAMQEFMILPVGASSFKEAMRIGAEVYHHLKGVIKAKYGKDATNVGDEGGFAPNILENNEALELLKTAIQAAGYPDKVVIGMDVAASEFYRNGKYDLDFKSPDDPARHISGEKLGELYKNFIQNYPVVSIEDPFDQDDWATWTSFLSGVDIQIVGDDLTVTNPKRIAQAVEKKACNCLLLKVNQIGSVTESIQACKLAQSNGWGVMVSHRSGETEDTFIADLVVGLCTGQIKTGAPCRSERLAKYNQLMRIEEALGDKAVFAGRKFRNPKAK
13 | 1 | 1 | IGG2B_MOUSE (other) KTTPPSVYPLAPGCGDTTGSSVTLGCLVKGYFPESVTVTWNSGSLSSSVHTFPALLQSGLYTMSSSVTVPSSTWPSQTVTCSVAHPASSTTVDKKLEPSGPISTINPCPPCKECHKCPAPNLEGGPSVFIFPPNIKDVLMISLTPKVTCVVVDVSEDDPDVQISWFVNNVEVHTAQTQTHREDYNSTIRVVSTLPIQHQDWMSGKEFKCKVNNKDLPSPIERTISKIKGLVRAPQVYILPPPAEQLSRKDVSLTCLVVGFNPGDISVEWTSNGHTEENYKDTAPVLDSDGSYFIYSKLNMKTSKWEKTDSFSCNVRHEGLKNYYLKKTISRSPGK
14 | 3 | 3 | ALDOA_MOUSE (enzyme) PHPYPALTPEQKKELSDIAHRIVAPGKGILAADESTGSIAKRLQSIGTENTEENRRFYRQLLLTADDRVNPCIGGVILFHETLYQKADDGRPFPQVIKSKGGVVGIKVDKGVVPLAGTNGETTTQGLDGLSERCAQYKKDGADFAKWRCVLKIGEHTPSALAIMENANVLARYASICQQNGIVPIVEPEILPDGDHDLKRCQYVTEKVLAAVYKALSDHHVYLEGTLLKPNMVTPGHACTQKFSNEEIAMATVTALRRTVPPAVTGVTFLSGGQSEEEASINLNAINKCPLLKPWALTFSYGRALQASALKAWGGKKENLKAAQEEYIKRALANSLACQGKYTPSGQSGAAASESLFISNHAY
